The source of these data is paper doi:10.1101/2024.02.14.580117.

Read-outs that look alike come from different tables or passages of the source.

What all share (assay): EMSA
On the technique in general: A gel shift assay detects complexes by their altered migration in electrophoresis.

The target of data set [1] is T1, Argonaute 2 (AGO2), loaded with miR-34a (Homo sapiens, UniProt Q9UKV8 1-859).
Data set [2] addresses T1, Argonaute 2 (AGO2), loaded with miR-34a. This is another data set of the same source.
Data set [3] has the same target. The source holds these as a separate data set.
For data set [4] the target is unchanged. This is another data set of the same source.
For data set [5] the target is unchanged. This is another data set of the same source.

T1 sequence (Q9UKV8 whole entry): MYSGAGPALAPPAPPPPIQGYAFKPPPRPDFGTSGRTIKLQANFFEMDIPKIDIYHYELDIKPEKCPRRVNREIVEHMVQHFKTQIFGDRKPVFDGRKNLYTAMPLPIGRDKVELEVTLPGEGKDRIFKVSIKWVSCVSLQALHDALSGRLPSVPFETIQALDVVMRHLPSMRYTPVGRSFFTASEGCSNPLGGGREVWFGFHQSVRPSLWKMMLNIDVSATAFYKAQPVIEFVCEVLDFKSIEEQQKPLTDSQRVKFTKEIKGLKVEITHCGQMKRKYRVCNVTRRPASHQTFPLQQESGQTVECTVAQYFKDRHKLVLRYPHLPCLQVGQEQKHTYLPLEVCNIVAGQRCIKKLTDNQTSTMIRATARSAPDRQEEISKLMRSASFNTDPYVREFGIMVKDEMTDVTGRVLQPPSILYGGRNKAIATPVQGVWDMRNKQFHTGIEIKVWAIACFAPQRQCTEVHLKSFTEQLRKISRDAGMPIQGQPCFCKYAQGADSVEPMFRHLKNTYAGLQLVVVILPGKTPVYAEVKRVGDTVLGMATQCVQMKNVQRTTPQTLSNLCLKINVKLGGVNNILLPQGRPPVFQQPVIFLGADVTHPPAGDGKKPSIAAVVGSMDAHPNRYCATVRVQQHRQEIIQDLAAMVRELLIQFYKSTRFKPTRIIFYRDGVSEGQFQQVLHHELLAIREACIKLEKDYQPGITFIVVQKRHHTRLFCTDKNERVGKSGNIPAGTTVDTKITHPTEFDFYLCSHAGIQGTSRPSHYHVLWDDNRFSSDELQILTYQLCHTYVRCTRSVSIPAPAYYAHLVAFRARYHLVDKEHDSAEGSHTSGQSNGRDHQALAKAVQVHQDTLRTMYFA

B1: miR-34a guide / PNUTS target (dsRNA)
RNA 1: UGGCAGUGUCUUAGCUGGUUGU
RNA 2: AAAGUCACACUACAUGCACUGCCU
modifications: 5' phosphate on guide
What is called Kd is a measure of binding affinity in units of concentration. The molecule B1 yielded a Kd in data set [1] of 14.5 ± 2.9 nM.

B2: miR-34a guide / SIRT1 target (dsRNA)
RNA 1: UGGCAGUGUCUUAGCUGGUUGU
RNA 2: ACACCCAGCUAGGACCAUUACUGCCA
modifications: 5' phosphate on guide
For B2, the Kd in data set [2] was found to be 2.68 ± 0.3 nM.

B3: miR-34a guide / CDK6 target (dsRNA)
RNA 1: UGGCAGUGUCUUAGCUGGUUGU
RNA 2: UACUUUCUGCCACACACUGCCU
modifications: 5' phosphate on guide
B3: the Kd in data set [1] came to 26.9 ± 1.4 nM.

B4: miR-34a guide / SCRseed target (dsRNA)
RNA 1: UGGCAGUGUCUUAGCUGGUUGU
RNA 2: ACAACCAGCUAUCACACACGGA
modifications: 5' phosphate on guide
Regarding B4, the binding result in data set [3] is recorded as “binds”.

B5: miR-34a guide / PERFECT target (dsRNA)
RNA 1: UGGCAGUGUCUUAGCUGGUUGU
RNA 2: ACAACCAGCUAAGACACUGCCA
modifications: 5' phosphate on guide
For the molecule B5, binding in data set [1] was put at a Kd of 1.03 ± 0.46 nM.

B6: miR-34a guide / WNT1 target (dsRNA)
RNA 1: UGGCAGUGUCUUAGCUGGUUGU
RNA 2: GGAGACCCCUUGUUGCACUGCCC
modifications: 5' phosphate on guide
Take B6: the binding result in data set [4] was “binds”.

B7: miR-34a guide / DLL1 target (dsRNA)
RNA 1: UGGCAGUGUCUUAGCUGGUUGU
RNA 2: CCGGCCGCCUGCGGCACUGCCU
modifications: 5' phosphate on guide
In data set [1], B7 registered a Kd of 69.2 ± 14.1 nM.

B8: miR-34a guide / NOTCH2 target (dsRNA)
RNA 1: UGGCAGUGUCUUAGCUGGUUGU
RNA 2: UCAGUGAUGAGGAGGACAACACUGCCU
modifications: 5' phosphate on guide
B8 displayed a Kd in data set [5] of 496 ± 129 nM.

B9: miR-34a guide / HNF4a target (dsRNA)
RNA 1: UGGCAGUGUCUUAGCUGGUUGU
RNA 2: AGGGCCACAUCCCACUGCCA
modifications: 5' phosphate on guide
B9: in data set [1], the Kd was found to be 38.9 nM.

B10: miR-34a guide / MTA2 target (dsRNA)
RNA 1: UGGCAGUGUCUUAGCUGGUUGU
RNA 2: GGUACCUGGUUGGGGGAGGGGGGCGUGCACUGCCA
modifications: 5' phosphate on guide
B10 came in with a Kd in data set [1] of 66.1 ± 11.2 nM.

B11: miR-34a guide / NOTCH1 target (dsRNA)
RNA 1: UGGCAGUGUCUUAGCUGGUUGU
RNA 2: ACUUUUAUUUUACACAGAAACACUGCCU
modifications: 5' phosphate on guide
For B11, the binding result in data set [4] was “binds”.

B12: miR-34a guide / BCL2 target (dsRNA)
RNA 1: UGGCAGUGUCUUAGCUGGUUGU
RNA 2: UCGAAUCAGCUAUUUACUGCCA
modifications: 5' phosphate on guide
With B12, binding in data set [1] was characterised by a dissociation constant (Kd) of 8.92 nM.
